Tested on: Escherichia coli TOP10
Assay: shrunken log2 fold change of peptide-encoding DNA abundance (4.5 h post-induction vs induction); higher = less antimicrobial activity (less host growth inhibition)
Details: time post-induction: 4.5 h; library: site-saturation at positions 5, 18, 19, 20
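Further: peptides expressed intracellularly from a pBAD plasmid library in pooled LB shake-flask culture, induced with 0.3% L-arabinose, DNA abundance read by NGS, three biological replicates, DESeq2 with apeglm shrinkage.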

Sequence	shrunken log2 fold change
RRIRIRPPRLPRPRPRPYPTPRP	-0.159
RRIRIRPPRLPRPRPRPYPYPRP	0.0143
RRIRIRPPRLPRPRPRPYQEPRP	0.0173
RRIRIRPPRLPRPRPRPYQYPRP	-0.19
RRIRIRPPRLPRPRPRPYRFPRP	-0.636
RRIRIRPPRLPRPRPRPYRWPRP	0.0522
RRIRIRPPRLPRPRPRPYSNPRP	-0.385
RRIRIRPPRLPRPRPRPYSTPRP	-1.85
RRIRIRPPRLPRPRPRPYTFPRP	-2.16
RRIRIRPPRLPRPRPRPYTQPRP	-1.02
RRIRIRPPRLPRPRPRPYTRPRP	-0.353
RRIRIRPPRLPRPRPRPYVVPRP	-1.54
RRIRIRPPRLPRPRPRPYWGPRP	-0.151
RRIRKRPPRLPRPRPRPACLPRP	0.222
RRIRKRPPRLPRPRPRPADMPRP	0.399
RRIRKRPPRLPRPRPRPAEAPRP	0.959
RRIRKRPPRLPRPRPRPAEIPRP	-0.119
RRIRKRPPRLPRPRPRPAEWPRP	0.0965
RRIRKRPPRLPRPRPRPAFKPRP	-0.0132
RRIRKRPPRLPRPRPRPAGCPRP	0.702
RRIRKRPPRLPRPRPRPAGRPRP	0.432
RRIRKRPPRLPRPRPRPAHWPRP	0.719
RRIRKRPPRLPRPRPRPAIDPRP	0.113
RRIRKRPPRLPRPRPRPAILPRP	0.0725
RRIRKRPPRLPRPRPRPAKMPRP	0.376

Sequence	shrunken log2 fold change
RRIRKRPPRLPRPRPRPAKQPRP	0.0123
RRIRKRPPRLPRPRPRPALKPRP	0.48
RRIRKRPPRLPRPRPRPAMPPRP	0.788
RRIRKRPPRLPRPRPRPAMRPRP	1.33
RRIRKRPPRLPRPRPRPAPNPRP	0.631
RRIRKRPPRLPRPRPRPAPTPRP	1.01
RRIRKRPPRLPRPRPRPAQGPRP	1.39
RRIRKRPPRLPRPRPRPAQSPRP	0.0619
RRIRKRPPRLPRPRPRPARDPRP	1.1
RRIRKRPPRLPRPRPRPARHPRP	1.9
RRIRKRPPRLPRPRPRPARLPRP	0.434
RRIRKRPPRLPRPRPRPASDPRP	0.981
RRIRKRPPRLPRPRPRPAVLPRP	-0.025
RRIRKRPPRLPRPRPRPAWCPRP	0.0965
RRIRKRPPRLPRPRPRPAYEPRP	0.0198
RRIRKRPPRLPRPRPRPCCVPRP	0.265
RRIRKRPPRLPRPRPRPCETPRP	-0.0599
RRIRKRPPRLPRPRPRPCEWPRP	-0.0222
RRIRKRPPRLPRPRPRPCFTPRP	0.135
RRIRKRPPRLPRPRPRPCGAPRP	0.45
RRIRKRPPRLPRPRPRPCGDPRP	0.466
RRIRKRPPRLPRPRPRPCGKPRP	0.00875
RRIRKRPPRLPRPRPRPCGTPRP	-0.0177
RRIRKRPPRLPRPRPRPCHCPRP	-0.241
RRIRKRPPRLPRPRPRPCHPPRP	-0.336

Sequence	shrunken log2 fold change
RRIRKRPPRLPRPRPRPCIEPRP	-0.00715
RRIRKRPPRLPRPRPRPCKIPRP	-0.248
RRIRKRPPRLPRPRPRPCLLPRP	-0.037
RRIRKRPPRLPRPRPRPCMQPRP	0.121
RRIRKRPPRLPRPRPRPCPMPRP	-0.15
RRIRKRPPRLPRPRPRPCPNPRP	-0.0875
RRIRKRPPRLPRPRPRPCPTPRP	0.0658
RRIRKRPPRLPRPRPRPCPWPRP	0.332
RRIRKRPPRLPRPRPRPCQNPRP	0.412
RRIRKRPPRLPRPRPRPCQQPRP	-0.0287
RRIRKRPPRLPRPRPRPCQVPRP	-0.00846
RRIRKRPPRLPRPRPRPCQYPRP	-0.26
RRIRKRPPRLPRPRPRPCRIPRP	-0.0405
RRIRKRPPRLPRPRPRPCSHPRP	0.0663
RRIRKRPPRLPRPRPRPCSTPRP	0.0274
RRIRKRPPRLPRPRPRPCVGPRP	0.334
RRIRKRPPRLPRPRPRPCVSPRP	-0.376
RRIRKRPPRLPRPRPRPCVWPRP	0.205
RRIRKRPPRLPRPRPRPCWAPRP	0.114
RRIRKRPPRLPRPRPRPCWRPRP	0.183
RRIRKRPPRLPRPRPRPCYDPRP	-0.0387
RRIRKRPPRLPRPRPRPCYFPRP	-0.00436
RRIRKRPPRLPRPRPRPCYLPRP	-0.427
RRIRKRPPRLPRPRPRPCYPPRP	-0.446
RRIRKRPPRLPRPRPRPCYSPRP	-0.178

Sequence	shrunken log2 fold change
RRIRKRPPRLPRPRPRPDCSPRP	-0.0754
RRIRKRPPRLPRPRPRPDEDPRP	-0.00112
RRIRKRPPRLPRPRPRPDEEPRP	2.82
RRIRKRPPRLPRPRPRPDFMPRP	0.028
RRIRKRPPRLPRPRPRPDGCPRP	0.14
RRIRKRPPRLPRPRPRPDHDPRP	0.0562
RRIRKRPPRLPRPRPRPDIMPRP	1.57
RRIRKRPPRLPRPRPRPDKPPRP	0.128
RRIRKRPPRLPRPRPRPDMHPRP	0.051
RRIRKRPPRLPRPRPRPDMWPRP	0.245
RRIRKRPPRLPRPRPRPDNTPRP	-0.0368
RRIRKRPPRLPRPRPRPDPWPRP	0.422
RRIRKRPPRLPRPRPRPDPYPRP	-0.0561
RRIRKRPPRLPRPRPRPDQEPRP	0.0193
RRIRKRPPRLPRPRPRPDQQPRP	0.0777
RRIRKRPPRLPRPRPRPDRVPRP	-0.00884
RRIRKRPPRLPRPRPRPDTDPRP	0.198
RRIRKRPPRLPRPRPRPDVNPRP	0.139
RRIRKRPPRLPRPRPRPDWSPRP	0.0357
RRIRKRPPRLPRPRPRPEARPRP	0.429
RRIRKRPPRLPRPRPRPEAYPRP	0.0226
RRIRKRPPRLPRPRPRPEDCPRP	-0.00264
RRIRKRPPRLPRPRPRPEDIPRP	-0.00208
RRIRKRPPRLPRPRPRPEECPRP	0.00489
RRIRKRPPRLPRPRPRPEERPRP	1.23

Sequence	shrunken log2 fold change
RRIRKRPPRLPRPRPRPEFCPRP	0.771
RRIRKRPPRLPRPRPRPEGCPRP	0.959
RRIRKRPPRLPRPRPRPEGWPRP	1.46
RRIRKRPPRLPRPRPRPEHGPRP	0.0647
RRIRKRPPRLPRPRPRPEHMPRP	0.829
RRIRKRPPRLPRPRPRPEHYPRP	0.0532
RRIRKRPPRLPRPRPRPEKCPRP	0.0317
RRIRKRPPRLPRPRPRPEKKPRP	-0.018
RRIRKRPPRLPRPRPRPEKYPRP	-0.0153
RRIRKRPPRLPRPRPRPELHPRP	0.0814
RRIRKRPPRLPRPRPRPEMDPRP	0.0842
RRIRKRPPRLPRPRPRPEQYPRP	0.104
RRIRKRPPRLPRPRPRPERAPRP	0.892
RRIRKRPPRLPRPRPRPEREPRP	0.671
RRIRKRPPRLPRPRPRPERGPRP	0.443
RRIRKRPPRLPRPRPRPERTPRP	0.772
RRIRKRPPRLPRPRPRPETDPRP	0.0366
RRIRKRPPRLPRPRPRPETTPRP	1.53
RRIRKRPPRLPRPRPRPEVMPRP	0.148
RRIRKRPPRLPRPRPRPEVWPRP	0.951
RRIRKRPPRLPRPRPRPEWIPRP	0.454
RRIRKRPPRLPRPRPRPEYGPRP	0.087
RRIRKRPPRLPRPRPRPEYHPRP	-0.0122
RRIRKRPPRLPRPRPRPEYWPRP	-0.0125
RRIRKRPPRLPRPRPRPFAAPRP	0.662

Sequence	shrunken log2 fold change
RRIRKRPPRLPRPRPRPFAFPRP	0.272
RRIRKRPPRLPRPRPRPFAPPRP	0.792
RRIRKRPPRLPRPRPRPFATPRP	0.45
RRIRKRPPRLPRPRPRPFDDPRP	-0.131
RRIRKRPPRLPRPRPRPFDNPRP	0.057
RRIRKRPPRLPRPRPRPFGKPRP	0.144
RRIRKRPPRLPRPRPRPFGTPRP	-0.0368
RRIRKRPPRLPRPRPRPFHIPRP	-0.025
RRIRKRPPRLPRPRPRPFIEPRP	-0.205
RRIRKRPPRLPRPRPRPFIGPRP	-0.0147
RRIRKRPPRLPRPRPRPFISPRP	-0.113
RRIRKRPPRLPRPRPRPFLIPRP	-0.19
RRIRKRPPRLPRPRPRPFLSPRP	-0.0256
RRIRKRPPRLPRPRPRPFMEPRP	-0.00271
RRIRKRPPRLPRPRPRPFNGPRP	-0.407
RRIRKRPPRLPRPRPRPFNSPRP	-0.0903
RRIRKRPPRLPRPRPRPFPGPRP	-0.0018
RRIRKRPPRLPRPRPRPFPIPRP	-0.0405
RRIRKRPPRLPRPRPRPFQMPRP	-0.28
RRIRKRPPRLPRPRPRPFRAPRP	0.201
RRIRKRPPRLPRPRPRPFRSPRP	0.0452
RRIRKRPPRLPRPRPRPFSRPRP	0.238
RRIRKRPPRLPRPRPRPFVVPRP	-0.00719
RRIRKRPPRLPRPRPRPFWYPRP	0.0709
RRIRKRPPRLPRPRPRPGAAPRP	1.54

Reference: the supplement of paper PMC9112550, “Optimization of the antimicrobial peptide Bac7 by deep mutational scanning” (BMC Biology, 2022)
